# Where two headings read alike, the source gives them in different places.
# T1: monomeric hRNF43-His antigen (UniProt Q68DV7 24-197)
# T1 chain: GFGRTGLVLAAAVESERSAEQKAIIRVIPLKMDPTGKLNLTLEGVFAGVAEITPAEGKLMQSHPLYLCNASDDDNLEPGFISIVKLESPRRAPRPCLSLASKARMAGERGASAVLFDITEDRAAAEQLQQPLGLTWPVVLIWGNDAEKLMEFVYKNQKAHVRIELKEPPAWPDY
# Key:
# Test in all cases: SPR
# [1] = biological target: T1, monomeric hRNF43-His antigen
# [2] = biological target: T1, monomeric hRNF43-His antigen
# [3] = biological target: T1, monomeric hRNF43-His antigen
# SC37.23 = biological target: SC37.23
# rSC37.17 = biological target: rSC37.17
# SC37.9 = biological target: SC37.9
# SC37.78 = biological target: SC37.78
# rSC37.39 = biological target: rSC37.39
# rSC37.67 = biological target: rSC37.67
# [4] = biological target: T1, monomeric hRNF43-His antigen
binder,measurement,setting,value
"SC37.3 (antibody, V domains shown) VH: QIQLVQSGPELKKPGETVKISCKASGYTFTNYGMNWVRQAPGKGLKWVGWINTNTGEPTYADDFKGRFAFSLETSASTAYLQISNLKNEDMSTYFCAGSHDYSFAYWGQGTLVTVSA VL: QAVVTQESALTTSPGETVTFTCRSSTGAVTTSNYANWVQEKPDHLFTGLIGGTNNRAPGVPARFSGSLIGDKAALTITGAQTEDEAIYFCALWYSNHWVFGGGTKLTVL",Kd,[1],44 nM
"hSC37.17 (antibody, V domains shown) VH: QVQLVQSGAEVKKPGASVKVSCKASGFNIKDTYIHWVRQAPGQGLEWMGRIDPANGKANYDPKFQGRVTMTRDTSTSTVYMELSSLRSEDTAVYYCALGGGYYGMDYWGQGTLVTVSS VL: DIVMTQSPDSLAVSLGERATINCRASESVDSYGNSFMHWYQQKPGQPPKLLIYLASNLESGVPDRFSGSGSGTDFTLTISSLQAEDVAVYYCQQNNEDPLTFGQGTKVEIKR",Kd,[2],1.2 nM
"hSC37.67 (antibody, V domains shown) VH: QVQLVQSGAEVKKPGASVKVSCKASGYTFTRYWIEWVRQAPGQRLEWMGEILPGSGSTNYNEKFKGRVTITADTSASTAYMELSSLRSEDTAVYYCERRGAYWGQGTLVTVSS VL: DIQMTQSPSSLSASVGDRVTITCKASEDIYNRLAWYQQKPGKAPKLLISGATSLETGVPSRFSGSGSGTDYTLTISSLQPEDFATYYCQQNWSTPPTFGGGTKVEIKR",Kd,[3],4.2 nM
RNF43 (other) GFGRTGLVLAAAVESERSAEQKAIIRVIPLKMDPTGKLNLTLEGVFAGVAEITPAEGKLMQSHPLYLCNASDDDNLEPGFISIVKLESPRRAPRPCLSLASKARMAGERGASAVLFDITEDRAAAEQLQQPLGLTWPVVLIWGNDAEKLMEFVYKNQKAHVRIELKEPPAWPDY,Kd,SC37.23,23.7 nM
same,Kd,rSC37.17,9.3 nM
same,Kd,SC37.9,160 nM
same,Kd,SC37.78,10.8 nM
same,Kd,rSC37.39,1 nM
same,Kd,rSC37.67,5.4 nM
"SC37.17 (antibody, V domains shown) VH: EVQLQQSGADLVKPGASVKLSCTGSGFNIKDTYIHWVRQRPEQGLEWIGRIDPANGKANYDPKFQGKATMTADTSSKTVYVQLSSLTSEDTAVYYCALGGGYYGMDYWGRGTSVTVSS VL: NIVLTQSPASLAVSLGQRATISCRASESVDSYGNSFMHWYQQKPGQPPKLLIYLASNLESGVPARFSGSGSRTDFTLTIDPVEADDAATYYCQQNNEDPLTFGAGTKLELK",Kd,[2],9.3 nM
"hSC37.39 (antibody, V domains shown) VH: QVQLVQSGAEVKKPGASVKVSCKASGYTFTTYTIHWVRQAPGQGLEWMGYINPRSGYTEYNQKFQDRVTMTRDTSTSTVYMELSSLRSEDTAVYYCARSYEFWGQGTTVTVSS VL: EIVMTQSPATLSVSPGERATLSCKASQNVGINVAWYQQKPGQAPRALIYSASYRYSGIPARFSGSGSGTEFTLTISSLQSEDFAVYYCHQYKTYPYTFGGGTKVEIKR",Kd,[4],0.34 nM
"SC37.2 (antibody, V domains shown) VH: EVNLVESGGGLVQPGGSLRLSCATSGFTFSDFDMEWVRQPPGKRLEWIAASRNKANDYTTQYSASVKGRFIVSRDTSQSIVYIQMNALRAEDTAIYYCARDRYDYALDYWGQGTSVTVSS VL: DIVMSQSPSSLAVSVGEKVTMSCKSSQTLLYYSNQKNYLAWYQRKPGLSPKLLIYWASTRDSGVPDRFTGSGSGTDFTLTISSVKAEDLAVYYCQQYYNYPLTFGAGTKLELK",Kd,[1],220 nM
"SC37.39 (antibody, V domains shown) VH: QVQLQQSAAELARPGASVKMSCKASGYTFTTYTIHWVKQRPGQGLKWIGYINPRSGYTEYNQKFQDKTTMTSDNSSSTAYIQLSSLTSEDSAVYYCARSYEFWGQGTTLTVSS VL: DIVMTQSQKFMSTSGGDRVSVTCKASQNVGINVAWYQQKPGQSPKALIYSASYRYSGVPNRFTGSGSGTDFTLTISNVQSEDLGDYFCHQYKTYPYTFGGGTKLEIK",Kd,[4],1.1 nM
"SC37.67 (antibody, V domains shown) VH: QVQLQQSGAELMKPGASVKISCKATGYTFSRYWIEWVKQRPGHGLEWIGEILPGSGSTNYNEKFKGKATFTADTSSNTAYMQLTSLTSEDSAVYFCERRGAYWGQGTLVTVSA VL: DIQMTQSSSSFSVSLGDRVTITCKASEDIYNRLAWYQQKPGNAPRLLISGATSLETGVPSRFSGSGSGKDYTLSITSLQTEDVATYHCQQNWSTPPTFGGGTKLEIK",Kd,[3],3.5 nM
"hSC37.2 (antibody, V domains shown) VH: EVQLVESGGGLVQPGGSLRLSCAASGFTFSDFDMEWVRQAPGKGLEWVGASRNKANDYTTQYSASVKGRFTISRDTSKNSLYLQMNSLKTEDTAVYYCARDRYDYALDYWGQGTTVTVSS VL: DIQMTQSPSSLSASVGDRVTITCKSSQTLLYYSNQKNYLAWYQQKPGKVPKLLIYWASTRDSGVPSRFSGSGSGTDFTLTISSLQPEDVATYYCQQYYNYPLTFGQGTKLEIKR",Kd,[1],120 nM
